First the molecules themselves.
B1: Ly402 (bispecific antibody, human IgG1, kappa)
heavy: EVQLVESGGGVVQPGRSLRLSCSASGFDFTTYWMSWVRQAPGKGLEWIGEIHPDSSTINYAPSLKDRFTISRDNAKNTLFLQMDSLRPEDTGVYFCASLYFGFPWFAYWGQGTPVTVSSASTKGPSVFPLAPSSKSTSGGTAALGCLVKDYFPEPVTVSWNSGALTSGVHTFPAVLQSSGLYSLSSVVTVPSSSLGTQTYICNVNHKPSNTKVDKKVEPKSCDKTHTCPPCPAPELLGPSVFLFPPKPKDTLMISRTPEVTCVVVDVSHEDPEVKFNWYVDGVEVHNAKTKPREEQYNSTYRVVSVLTVLHQDWLNGKEYKCKVSNKALPAPIEKTISKAKGQPREPQVYTLPPSREEMTKNQVSLTCLVKGFYPSDIAVEWESNGQPENNYKTTPPVLDSDGSFFLYSKLTVDKSRWQQGNVFSCSVMHEALHNHYTQKSLSLSPGGGGGSGGGGSGGGGSGGGGSQVQLVESGGGLVQPGGSLKLSCATSGFNFNDYFMNWVRQASGKGLEWVGQIRNKNYNYATYYTESLEGRVTISRDDSKNTAYLQMNSLKTEDTAVYYCTSYYYDGFADYFDYWGQGTTVTVSSGGGGSGGGGSGGGGSGGGGSDIQMTQSPSSLSASVGDRVTITCKASQNIYIYLNWYQQKPGKAPKLLIYNTNNLQTGVPSRFSGSGSGTDFTLTISSLQPEDFATYYCLQHSSRRTFGGGTKVEIK
light: DIQLTQSPSSLSASVGDRVTITCKASQDVGTSVAWYQQKPGKAPKLLIYWTSTRHTGVPSRFSGSGSGTDFTFTISSLQPEDIATYYCQQYSLYRSFGQGTKVEIKRTVAAPSVFIFPPSDEQLKSGTASVVCLLNNFYPREAKVQWKVDNALQSGNSQESVTEQDSKDSTYSLSSTLTLSKADYEKHKVYACEVTHQGLSSPVTKSFNRGEC
notes: Ly311 HC (IgG1 mutated Fc)-TM740 scFv VH-VL + Ly311 LC
B2: Ly403 (bispecific antibody, human IgG1, kappa)
heavy: EVQLVESGGGVVQPGRSLRLSCSASGFDFTTYWMSWVRQAPGKGLEWIGEIHPDSSTINYAPSLKDRFTISRDNAKNTLFLQMDSLRPEDTGVYFCASLYFGFPWFAYWGQGTPVTVSSASTKGPSVFPLAPSSKSTSGGTAALGCLVKDYFPEPVTVSWNSGALTSGVHTFPAVLQSSGLYSLSSVVTVPSSSLGTQTYICNVNHKPSNTKVDKKVEPKSCDKTHTCPPCPAPELLGPSVFLFPPKPKDTLMISRTPEVTCVVVDVSHEDPEVKFNWYVDGVEVHNAKTKPREEQYNSTYRVVSVLTVLHQDWLNGKEYKCKVSNKALPAPIEKTISKAKGQPREPQVYTLPPSREEMTKNQVSLTCLVKGFYPSDIAVEWESNGQPENNYKTTPPVLDSDGSFFLYSKLTVDKSRWQQGNVFSCSVMHEALHNHYTQKSLSLSPGK
light: DIQLTQSPSSLSASVGDRVTITCKASQDVGTSVAWYQQKPGKAPKLLIYWTSTRHTGVPSRFSGSGSGTDFTFTISSLQPEDIATYYCQQYSLYRSFGQGTKVEIKRTVAAPSVFIFPPSDEQLKSGTASVVCLLNNFYPREAKVQWKVDNALQSGNSQESVTEQDSKDSTYSLSSTLTLSKADYEKHKVYACEVTHQGLSSPVTKSFNRGECGGGGSGGGGSGGGGSGGGGSDIQMTQSPSSLSASVGDRVTITCKASQNIYIYLNWYQQKPGKAPKLLIYNTNNLQTGVPSRFSGSGSGTDFTLTISSLQPEDFATYYCLQHSSRRTFGGGTKVEIKGGGGSGGGGSGGGGSGGGGSQVQLVESGGGLVQPGGSLKLSCATSGFNFNDYFMNWVRQASGKGLEWVGQIRNKNYNYATYYTESLEGRVTISRDDSKNTAYLQMNSLKTEDTAVYYCTSYYYDGFADYFDYWGQGTTVTVSS
notes: Ly311 HC (IgG1 mutated Fc) + Ly311 LC-TM740 scFv VL-VH
B3: Ly404 (bispecific antibody, human IgG1, kappa)
heavy: B2 heavy
light: DIQLTQSPSSLSASVGDRVTITCKASQDVGTSVAWYQQKPGKAPKLLIYWTSTRHTGVPSRFSGSGSGTDFTFTISSLQPEDIATYYCQQYSLYRSFGQGTKVEIKRTVAAPSVFIFPPSDEQLKSGTASVVCLLNNFYPREAKVQWKVDNALQSGNSQESVTEQDSKDSTYSLSSTLTLSKADYEKHKVYACEVTHQGLSSPVTKSFNRGECGGGGSGGGGSGGGGSGGGGSQVQLVESGGGLVQPGGSLKLSCATSGFNFNDYFMNWVRQASGKGLEWVGQIRNKNYNYATYYTESLEGRVTISRDDSKNTAYLQMNSLKTEDTAVYYCTSYYYDGFADYFDYWGQGTTVTVSSGGGGSGGGGSGGGGSGGGGSDIQMTQSPSSLSASVGDRVTITCKASQNIYIYLNWYQQKPGKAPKLLIYNTNNLQTGVPSRFSGSGSGTDFTLTISSLQPEDFATYYCLQHSSRRTFGGGTKVEIK
notes: Ly311 HC (IgG1 mutated Fc) + Ly311 LC-TM740 scFv VH-VL
B4: Ly407 (bispecific antibody, human IgG1, kappa)
heavy: EVQLVESGGGLVQPGGSLRLSCAASGFNIKDTYMHWVRQAPGKGLEWVARIDPANGNSKYADSVKGRFTISADTSKNTAYLQMNSLRAEDTAVYYCAPFGYYVSDYAMAYWGQGTLVTVSSASTKGPSVFPLAPSSKSTSGGTAALGCLVKDYFPEPVTVSWNSGALTSGVHTFPAVLQSSGLYSLSSVVTVPSSSLGTQTYICNVNHKPSNTKVDKKVEPKSCDKTHTCPPCPAPELLGPSVFLFPPKPKDTLMISRTPEVTCVVVDVSHEDPEVKFNWYVDGVEVHNAKTKPREEQYNSTYRVVSVLTVLHQDWLNGKEYKCKVSNKALPAPIEKTISKAKGQPREPQVYTLPPSREEMTKNQVSLTCLVKGFYPSDIAVEWESNGQPENNYKTTPPVLDSDGSFFLYSKLTVDKSRWQQGNVFSCSVMHEALHNHYTQKSLSLSPGK
light: DIQLTQSPSSLSASVGDRVTITCRAGESVDIFGVGFLHWYQQKPGKAPKLLIYRASNLESGVPSRFSGSGSRTDFTLTISSLQPEDFATYYCQQTNEDPYTFGQGTKVEIKRTVAAPSVFIFPPSDEQLKSGTASVVCLLNNFYPREAKVQWKVDNALQSGNSQESVTEQDSKDSTYSLSSTLTLSKADYEKHKVYACEVTHQGLSSPVTKSFNRGECGGGGSGGGGSGGGGSGGGGSDIQMTQSPSSLSASVGDRVTITCKASQNIYIYLNWYQQKPGKAPKLLIYNTNNLQTGVPSRFSGSGSGTDFTLTISSLQPEDFATYYCLQHSSRRTFGGGTKVEIKGGGGSGGGGSGGGGSGGGGSQVQLVESGGGLVQPGGSLKLSCATSGFNFNDYFMNWVRQASGKGLEWVGQIRNKNYNYATYYTESLEGRVTISRDDSKNTAYLQMNSLKTEDTAVYYCTSYYYDGFADYFDYWGQGTTVTVSS
notes: Ly312 HC (IgG1 mutated Fc) + Ly312 LC-TM740 scFv VL-VH
B5: Ly408 (bispecific antibody, human IgG1, kappa)
heavy: B4 heavy
light: DIQLTQSPSSLSASVGDRVTITCRAGESVDIFGVGFLHWYQQKPGKAPKLLIYRASNLESGVPSRFSGSGSRTDFTLTISSLQPEDFATYYCQQTNEDPYTFGQGTKVEIKRTVAAPSVFIFPPSDEQLKSGTASVVCLLNNFYPREAKVQWKVDNALQSGNSQESVTEQDSKDSTYSLSSTLTLSKADYEKHKVYACEVTHQGLSSPVTKSFNRGECGGGGSGGGGSGGGGSGGGGSQVQLVESGGGLVQPGGSLKLSCATSGFNFNDYFMNWVRQASGKGLEWVGQIRNKNYNYATYYTESLEGRVTISRDDSKNTAYLQMNSLKTEDTAVYYCTSYYYDGFADYFDYWGQGTTVTVSSGGGGSGGGGSGGGGSGGGGSDIQMTQSPSSLSASVGDRVTITCKASQNIYIYLNWYQQKPGKAPKLLIYNTNNLQTGVPSRFSGSGSGTDFTLTISSLQPEDFATYYCLQHSSRRTFGGGTKVEIK
notes: Ly312 HC (IgG1 mutated Fc) + Ly312 LC-TM740 scFv VH-VL
B6: Ly405 (bispecific antibody, human IgG1, kappa)
heavy: EVQLVESGGGLVQPGGSLRLSCAASGFNIKDTYMHWVRQAPGKGLEWVARIDPANGNSKYADSVKGRFTISADTSKNTAYLQMNSLRAEDTAVYYCAPFGYYVSDYAMAYWGQGTLVTVSSASTKGPSVFPLAPSSKSTSGGTAALGCLVKDYFPEPVTVSWNSGALTSGVHTFPAVLQSSGLYSLSSVVTVPSSSLGTQTYICNVNHKPSNTKVDKKVEPKSCDKTHTCPPCPAPELLGPSVFLFPPKPKDTLMISRTPEVTCVVVDVSHEDPEVKFNWYVDGVEVHNAKTKPREEQYNSTYRVVSVLTVLHQDWLNGKEYKCKVSNKALPAPIEKTISKAKGQPREPQVYTLPPSREEMTKNQVSLTCLVKGFYPSDIAVEWESNGQPENNYKTTPPVLDSDGSFFLYSKLTVDKSRWQQGNVFSCSVMHEALHNHYTQKSLSLSPGGGGGSGGGGSGGGGSGGGGSDIQMTQSPSSLSASVGDRVTITCKASQNIYIYLNWYQQKPGKAPKLLIYNTNNLQTGVPSRFSGSGSGTDFTLTISSLQPEDFATYYCLQHSSRRTFGGGTKVEIKGGGGSGGGGSGGGGSGGGGSQVQLVESGGGLVQPGGSLKLSCATSGFNFNDYFMNWVRQASGKGLEWVGQIRNKNYNYATYYTESLEGRVTISRDDSKNTAYLQMNSLKTEDTAVYYCTSYYYDGFADYFDYWGQGTTVTVSS
light: DIQLTQSPSSLSASVGDRVTITCRAGESVDIFGVGFLHWYQQKPGKAPKLLIYRASNLESGVPSRFSGSGSRTDFTLTISSLQPEDFATYYCQQTNEDPYTFGQGTKVEIKRTVAAPSVFIFPPSDEQLKSGTASVVCLLNNFYPREAKVQWKVDNALQSGNSQESVTEQDSKDSTYSLSSTLTLSKADYEKHKVYACEVTHQGLSSPVTKSFNRGEC
notes: Ly312 HC (IgG1 mutated Fc)-TM740 scFv VL-VH + Ly312 LC
B7: Ly406 (bispecific antibody, human IgG1, kappa)
heavy: EVQLVESGGGLVQPGGSLRLSCAASGFNIKDTYMHWVRQAPGKGLEWVARIDPANGNSKYADSVKGRFTISADTSKNTAYLQMNSLRAEDTAVYYCAPFGYYVSDYAMAYWGQGTLVTVSSASTKGPSVFPLAPSSKSTSGGTAALGCLVKDYFPEPVTVSWNSGALTSGVHTFPAVLQSSGLYSLSSVVTVPSSSLGTQTYICNVNHKPSNTKVDKKVEPKSCDKTHTCPPCPAPELLGPSVFLFPPKPKDTLMISRTPEVTCVVVDVSHEDPEVKFNWYVDGVEVHNAKTKPREEQYNSTYRVVSVLTVLHQDWLNGKEYKCKVSNKALPAPIEKTISKAKGQPREPQVYTLPPSREEMTKNQVSLTCLVKGFYPSDIAVEWESNGQPENNYKTTPPVLDSDGSFFLYSKLTVDKSRWQQGNVFSCSVMHEALHNHYTQKSLSLSPGGGGGSGGGGSGGGGSGGGGSQVQLVESGGGLVQPGGSLKLSCATSGFNFNDYFMNWVRQASGKGLEWVGQIRNKNYNYATYYTESLEGRVTISRDDSKNTAYLQMNSLKTEDTAVYYCTSYYYDGFADYFDYWGQGTTVTVSSGGGGSGGGGSGGGGSGGGGSDIQMTQSPSSLSASVGDRVTITCKASQNIYIYLNWYQQKPGKAPKLLIYNTNNLQTGVPSRFSGSGSGTDFTLTISSLQPEDFATYYCLQHSSRRTFGGGTKVEIK
light: B6 light
notes: Ly312 HC (IgG1 mutated Fc)-TM740 scFv VH-VL + Ly312 LC

This test deals with T1, human CD40 expressed on CHO cells (human, UniProt P25942 21-277).
T1 construct: whole, on cells; also used for the reporter cells over-expressing human CD40; also called cellular CD40; CHO-CD40 cells
T1 sequence (P25942 21-277): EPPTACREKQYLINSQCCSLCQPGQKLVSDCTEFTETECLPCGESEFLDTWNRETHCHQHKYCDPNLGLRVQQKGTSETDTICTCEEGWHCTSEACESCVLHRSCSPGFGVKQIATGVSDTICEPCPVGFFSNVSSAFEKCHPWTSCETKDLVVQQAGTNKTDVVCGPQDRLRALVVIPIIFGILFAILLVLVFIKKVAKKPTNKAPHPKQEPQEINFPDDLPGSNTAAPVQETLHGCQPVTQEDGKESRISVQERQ
The test is described as follows: FACS, CHO cells.
As for B1, the binding result is recorded as “binds”.
As to B2, the binding result was “binds”.
The same measure for B3: “binds”; for B4: “binds”.
Next, B5: “binds”.
Turning to B6, the binding result is given as “binds”.
As to B7, the binding result was “binds”.
